Like-named read-outs stand apart in the source and are kept apart here.
How the values were obtained:
Human Bax alpha (human) [1] = biological target: Human Bax alpha (human) (UniProt Q07812); assay: cross-linking
Human Bax alpha (human) [2] = biological target: Human Bax alpha (human) (UniProt Q07812); assay: cross-linking; remark: listed apart in the source

Substance: Human Bax alpha (from UniProt Q07812 1-192) (natural protein)
- stoichiometry N (Human Bax alpha (human) [1]): 2
- stoichiometry N (Human Bax alpha (human) [2]): < 8

Reference: PMC2778690
